B1: CPEB3 Ribozyme (parent)
chain: UAACAGGGGGCCACAGCAGAAGCGUUCACGUCGCAGCCCCUGUCAGAUUCUGGUGAAUCUGCGAAUUCUGCUGUAUAUCUC

Experimental findings from the RNAGym collection of RNA variant scans (doi:10.1093/nar/gkz1192) are described below.

The variants in this series derive from B1. In words: self-cleavage, relative activity (ratio to wild type); higher = more cleavage; in vitro, sequencing. Summed up:
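Barcoded CPEB3 ribozyme mutants, produced by rounds of error-prone PCR, self-cleaved while being transcribed with T7 RNA polymerase for 5 hours at 37°C and during a subsequent 15 min DNase I step before EDTA was added. Sequencing of template-switched cDNA on Illumina gave cleaved and total reads, and DNA sequencing assigned barcodes to variants. Each variant's relative activity is its cleaved/total read fraction divided by the unmutated ribozyme's fraction, averaged across three batches. A variant needed a minimum of 5 reads.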
As for UAACAGGGGGCCACAGCAGAAGCGUUCACGUCGCAGCCCCUGUCAGAUUCUGGUGGAUCUGCGAAUUCUGCUGUAUAUCCC [A56G U80C], the self-cleavage was determined as 0.84. Consider UAACAGGGGGCCACAGCAGAAGCGUUCACGUCGCAGCCCCUGUCAGAUUCUGGUGGAUCUGCGAAUUCUGCUGUAUAUCAC [A56G U80A], for which the self-cleavage amounted to 0.92.

UAACAGGGGGCCACAGCAGAAGCGUUCACGUCGCAGCCCCUGUCAGAUUCUGGUGGAUCUGCGAAUUCUGCUGUAUAUCGC [A56G U80G]: the self-cleavage was determined as 0.99. In the case of UAACAGGGGGCCACAGCAGAAGCGUUCACGUCGCAGCCCCUGUCAGAUUCUGGUGGAUCCGCGAAUUCUGCUGUAUAUCUC [A56G U60C] it was 0.42.

Take UAACAGGGGGCCACAGCAGAAGCGUUCACGUCGCAGCCCCUGUCAGAUUCUGGUGGAUCAGCGAAUUCUGCUGUAUAUCUC [A56G U60A]: the self-cleavage came to 0.41. As for UAACAGGGGGCCACAGCAGAAGCGUUCACGUCGCAGCCCCUGUCAGAUUCUGGUGGAUCGGCGAAUUCUGCUGUAUAUCUC [A56G U60G], the self-cleavage turned out to be 0.34. Regarding UAACAGGGGGCCACAGCAGAAGCGUUCACGUCGCAGCCCCUGUCAGAUUCUGGUGGAUCUGCGAAUUCUGCUGUACAUCUC [A56G U76C], the self-cleavage was determined as 0.85. In the case of UAACAGGGGGCCACAGCAGAAGCGUUCACGUCGCAGCCCCUGUCAGAUUCUGGUGGAUCUGCGAAUUCUGCUGUAAAUCUC [A56G U76A] it was 1.07; in that of UAACAGGGGGCCACAGCAGAAGCGUUCACGUCGCAGCCCCUGUCAGAUUCUGGUGGAUCUGCGAAUUCUGCUGUAUAACUC [A56G U78A], 0.91. Turning to UAACAGGGGGCCACAGCAGAAGCGUUCACGUCGCAGCCCCUGUCAGAUUCUGGUGGAUCUGCGAAUUCUGCUGUAUACCUC [A56G U78C], the self-cleavage was determined as 0.73.

For UAACAGGGGGCCACAGCAGAAGCGUUCACGUCGCAGCCCCUGUCAGAUUCUGGUGGAUCUGCGAAUUCUGCUGUAUAGCUC [A56G U78G], the self-cleavage was found to be 0.96. Turning to UAACAGGGGGCCACAGCAGAAGCGUUCACGUCGCAGCCCCUGUCAGAUUCUGGUGGAUCUGCGAAUACUGCUGUAUAUCUC [A56G U67A], the self-cleavage stood at 0.46. In the case of UAACAGGGGGCCACAGCAGAAGCGUUCACGUCGCAGCCCCUGUCAGAUUCUGGUGGAUCUGCGAAUCCUGCUGUAUAUCUC [A56G U67C], the self-cleavage worked out at 0.3. In the case of UAACAGGGGGCCACAGCAGAAGCGUUCACGUCGCAGCCCCUGUCAGAUUCUGGUGGAUCUGCGAAUUCUGCCGUAUAUCUC [A56G U72C], the self-cleavage came to 0.93. With UAACAGGGGGCCACAGCAGAAGCGUUCACGUCGCAGCCCCUGUCAGAUUCUGGUGGAUCUGCGAAUUCUGCAGUAUAUCUC [A56G U72A], the self-cleavage amounted to 0.64. On to UAACAGGGGGCCACAGCAGAAGCGUUCACGUCGCAGCCCCUGUCAGAUUCUGGUGGAUCUGCGAAUUCUGCGGUAUAUCUC [A56G U72G], for which the self-cleavage turned out to be 0.63. As for UAACAGGGGGCCACAGCAGAAGCGUUCACGUCGCAGCCCCUGUCAGAUUCUGGUGGAUCUGCGAAUUCUGCUGCAUAUCUC [A56G U74C], the self-cleavage came out at 1.12.

As to UAACAGGGGGCCACAGCAGAAGCGUUCACGUCGCAGCCCCUGUCAGAUUCUGGUGGAUCUGCGAAUUCUGCUGAAUAUCUC [A56G U74A], the self-cleavage was determined as 1.11. In the case of UAACAGGGGGCCACAGCAGAAGCGUUCACGUCGCAGCCCCUGUCAGAUUCUGGUGGAUCUGCGAAUUCCGCUGUAUAUCUC [A56G U69C], the self-cleavage was 0.43.

Take UAACAGGGGGCCACAGCAGAAGCGUUCACGUCGCAGCCCCUGUCAGAUUCUGGUGGAUCUGCGAAUUCAGCUGUAUAUCUC [A56G U69A]: the self-cleavage turned out to be 0.5. Regarding UAACAGGGGGCCACAGCAGAAGCGUUCACGUCGCAGCCCCUGUCAGAUUCUGGUGGAUCUGCGAAUUCGGCUGUAUAUCUC [A56G U69G], the self-cleavage is 0.54. UAACAGGGGGCCACAGCAGAAGCGUUCACGUCGCAGCCCCUGUCAGAUUCUGGUGGAUCUGCGAACUCUGCUGUAUAUCUC [A56G U66C]: the self-cleavage turned out to be 0.29. Take UAACAGGGGGCCACAGCAGAAGCGUUCACGUCGCAGCCCCUGUCAGAUUCUGGUGGAUCUGCGAAGUCUGCUGUAUAUCUC [A56G U66G]: the self-cleavage was 0.38. Consider UAACAGGGGGCCACAGCAGAAGCGUUCACGUCGCAGCCCCUGUCAGAUUCUGGUGGAUCUGCGAAAUCUGCUGUAUAUCUC [A56G U66A], for which the self-cleavage came to 0.44. UAACAGGGGGCCACAGCAGAAGCGUUCACGUCGCAGCCCCUGUCAGAUUCUGGUGGACCUGCGAAUUCUGCUGUAUAUCUC [A56G U58C]: the self-cleavage was 0.38.

UAACAGGGGGCCACAGCAGAAGCGUUCACGUCGCAGCCCCUGUCAGAUUCUGGUGGAACUGCGAAUUCUGCUGUAUAUCUC [A56G U58A]: the self-cleavage was found to be 0.32. Turning to UAACAGGGGGCCACAGCAGAAGCGUUCACGUCGCAGCCCCUGUCAGAUUCUGGUGGAGCUGCGAAUUCUGCUGUAUAUCUC [A56G U58G], the self-cleavage amounted to 0.22. For the variant UAACAGGGGGCCACAGCAGAAGCGUUCACGUCGCAGCCCCUGUCAGAUUCUGGUGUAUCUGCGAAUUCUGCUGUAUAUCUC [A56U], the self-cleavage was 0.74. For the variant UAACAGGGGGCCACAGCAGAAGCGUUCACGUCGCAGCCCCUGUCAGAUUCUGGUGUAUCUGCGAGUUCUGCUGUAUAUCUC [A56U A65G], the self-cleavage was 0.29. To UAACAGGGGGCCACAGCAGAAGCGUUCACGUCGCAGCCCCUGUCAGAUUCUGGUGUAUCUGCGCAUUCUGCUGUAUAUCUC [A56U A64C] belongs 0.19; to UAACAGGGGGCCACAGCAGAAGCGUUCACGUCGCAGCCCCUGUCAGAUUCUGGUGUAUCUGCGUAUUCUGCUGUAUAUCUC [A56U A64U], 0.28. To UAACAGGGGGCCACAGCAGAAGCGUUCACGUCGCAGCCCCUGUCAGAUUCUGGUGUAUCUGCGGAUUCUGCUGUAUAUCUC [A56U A64G] belongs 0.51; to UAACAGGGGGCCACAGCAGAAGCGUUCACGUCGCAGCCCCUGUCAGAUUCUGGUGUUUCUGCGAAUUCUGCUGUAUAUCUC [A56U A57U], 0.59; to UAACAGGGGGCCACAGCAGAAGCGUUCACGUCGCAGCCCCUGUCAGAUUCUGGUGUGUCUGCGAAUUCUGCUGUAUAUCUC [A56U A57G], 0.47.
